In patent publication US20230080842A1 (WUHAN YZY BIOPHARMA, published 2023):

T1: Human VEGFA (human, UniProt P15692 207-395)
T1 construct: also called VEGF antigen; not shown: His tag
T1 sequence: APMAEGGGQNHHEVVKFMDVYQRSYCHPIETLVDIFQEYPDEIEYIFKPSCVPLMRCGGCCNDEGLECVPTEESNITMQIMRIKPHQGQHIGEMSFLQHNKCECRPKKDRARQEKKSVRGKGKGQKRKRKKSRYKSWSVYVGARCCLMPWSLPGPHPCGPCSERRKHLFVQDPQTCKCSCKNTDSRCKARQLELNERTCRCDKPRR

T2: Human TIGIT (human, UniProt Q495A1 22-141)
T2 construct: also called TIGIT antigen; not shown: His tag
T2 sequence: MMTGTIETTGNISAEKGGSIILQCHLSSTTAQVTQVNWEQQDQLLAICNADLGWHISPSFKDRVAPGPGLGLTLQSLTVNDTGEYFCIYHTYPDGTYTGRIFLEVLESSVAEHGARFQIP

B1: Y206-A2 (bispecific antibody, human IgG1, kappa)
light: not shown
heavy: EVQLVESGGGLVQPGGSLRLSCAASGFTISDYWIHWVRQAPGKGLEWVAGITPAGGYTYYADSVKGRFTISADTSKNTAYLQMNSLRAEDTAVYYCARFVFFLPYAMDYWGQGTLVTVSSASTKGPSVFPLAPSSKSTSGGTAALGCLVKDYFPEPVTVSWNSGALTSGVHTFPAVLQSSGLYSLSSVVTVPSSSLGTQTYICNVNHKPSNTKVDKKVEPKSCDKTHTCPPCPAPPVAGPSVFLFPPKPKDTLMISRTPEVTCVVVDVSHEAPEVQFNWYVDGVEVHNAKTKPREEQFNSTFRVVSVLTVVHQDWLNGKEYKCKVSNKGLPAPIEKTISKTKGQPREPQVYTLPPSRDELTKNQVSLTCLVKGFYPSDIAVEWESNGQPENNYKTTPPVLDSDGSFFLYSKLTVDKSRWQQGNVFSCSVMHEALHNHYTQKSLSLSPGAGGGGSGGGGSGGGGSGQVQLVESGGGVVQPGRSLRLDCKASGITFSNSGMHWVRQAPGKGLEWVAVIWYDGSKRYYADSVKGRFTISRDNSKNTLFLQMNSLRAEDTAVYYCATNDDYWGQGTLVTVSSGGGGSGGGGSGGGGSEIVLTQSPATLSLSPGERATLSCRASQSVSSYLAWYQQKPGQAPRLLIYDASNRATGIPARFSGSGSGTDFTLTISSLEPEDFAVYYCQQSSNWPRTFGQGTKVEIK
notes: structure 2 IgG(H)-ScFv, A series; IgG G631 (anti-VEGF), scFv 5C4 (anti-PD-1)
B2: Y206-B2 (bispecific antibody, human IgG1, kappa)
light: not shown
heavy: EVQLVESGGGLVQPGGSLRLSCAASGFTISDYWIHWVRQAPGKGLEWVAGITPAGGYTYYADSVKGRFTISADTSKNTAYLQMNSLRAEDTAVYYCARFVFFLPYAMDYWGQGTLVTVSSASTKGPSVFPLAPSSKSTSGGTAALGCLVKDYFPEPVTVSWNSGALTSGVHTFPAVLQSSGLYSLSSVVTVPSSSLGTQTYICNVNHKPSNTKVDKKVEPKSCDKTHTCPPCPAPPVAGPSVFLFPPKPKDTLMISRTPEVTCVVVDVSHEAPEVQFNWYVDGVEVHNAKTKPREEQFNSTFRVVSVLTVVHQDWLNGKEYKCKVSNKGLPAPIEKTISKTKGQPREPQVYTLPPSRDELTKNQVSLTCLVKGFYPSDIAVEWESNGQPENNYKTTPPVLDSDGSFFLYSKLTVDKSRWQQGNVFSCSVMHEALHNHYTQKSLSLSPGAGGGGSGGGGSGGGGSGEIVLTQSPATLSLSPGERATLSCRASQSVSSYLAWYQQKPGQAPRLLIYDASNRATGIPARFSGSGSGTDFTLTISSLEPEDFAVYYCQQSSNWPRTFGQGTKVEIKGGGGSGGGGSGGGGSQVQLVESGGGVVQPGRSLRLDCKASGITFSNSGMHWVRQAPGKGLEWVAVIWYDGSKRYYADSVKGRFTISRDNSKNTLFLQMNSLRAEDTAVYYCATNDDYWGQGTLVTVSS
notes: structure 2 IgG(H)-ScFv, B series; IgG G631 (anti-VEGF), scFv 5C4 (anti-PD-1)
B3: 10A7mAb (antibody, human IgG1, kappa, V domains shown)
VH: EVQLVESGGGLTQPGKSLKLSCEASGFTFSSFTMHWVRQSPGKGLEWVAFIRSGSGIVFYADAVRGRFTISRDNAKNLLFLQMNDLKSEDTAMYYCARRPLGHNTFDSWGQGTLVTVSS
VL: DIVMTQSPSSLAVSPGEKVTMTCKSSQSLYYSGVKENLLAWYQQKPGQSPKLLIYYASIRFTGVPDRFTGSGSGTDYTLTITSVQAEDMGQYFCQQGINNPLTFGDGTKLEIKR
notes: anti-TIGIT monoclonal antibody, human IgG1 constant domains, kappa
B4: 3G12mAb (antibody, human IgG1, kappa, V domains shown)
VH: QVQLVQSGAEVKKPGSSVKVSCKASGYTFSSNVISWVRQAPGQGLEWMGGVIPIVDIANYAQRFKGRVTITADESTSTTYMELSSLRSEDTAVYYCASTLGLVLDAMDYWGQGTLVTVSS
VL: ETVLTQSPGTLSLSPGERATLSCRASQSLGSSYLAWYQQKPGQAPRLLIYGASSRAPGIPDRFSGSGSGTDFTLTISRLEPEDFAVYYCQQYADSPITFGQGTRLEIKR
notes: anti-TGF-β monoclonal antibody, human IgG1 constant domains, kappa

How the values were obtained:
Experiment in all cases: ELISA, plate coated with His-tagged antigen
Human VEGFA = molecular target: T1, Human VEGFA
Protocol: (§1) 2) addition of antibody: according to the experimental design, operation was performed at room temperature, and the antibody was diluted in gradient with 1% BSA in PBS. […] The diluted antibody was added into wells of microtiter plate at 200 μl/well, incubated at room temperature for 2h, and then the supernatant was discarded;

Human PD-1 = molecular target: T3, Human PD-1 (human, UniProt Q15116 25-170)
T3 construct: also called PD-1 antigen; not shown: His tag

Human TIGIT = molecular target: T2, Human TIGIT
Protocol: as §1

Human TGF-β1 = molecular target: T4, Human TGF-β1 (human, UniProt P01137 279-390)
T4 construct: also called TGF-01; TGF-β1 antigen; not shown: His tag
T4 sequence (P01137 279-390 limits assumed): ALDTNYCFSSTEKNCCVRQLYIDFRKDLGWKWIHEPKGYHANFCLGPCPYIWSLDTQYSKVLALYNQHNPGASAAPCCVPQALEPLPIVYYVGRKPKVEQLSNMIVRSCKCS

T3 sequence (Q15116 25-170): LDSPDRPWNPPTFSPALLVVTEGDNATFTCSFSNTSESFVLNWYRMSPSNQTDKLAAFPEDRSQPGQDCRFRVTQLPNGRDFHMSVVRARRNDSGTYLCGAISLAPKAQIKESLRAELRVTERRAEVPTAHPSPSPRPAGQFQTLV

Binder | EC50 (Human VEGFA) | EC50 (Human PD-1) | EC50 (Human TIGIT) | EC50 (Human TGF-β1)
B1 | 63 pM | 450 pM |  | 
B2 | 59.6 pM | 312 pM |  | 
B3 |  |  | 83.1 pM | 
B4 |  |  |  | 2.6 pM
